Experimental data: PMC9738585, “Unveiling the Metal-Dependent Aggregation Properties of the C-terminal Region of Amyloidogenic Intrinsically Disordered Protein Isoforms DPF3b and DPF3a” (International Journal of Molecular Sciences, 2022)

B1: C-terminal region of DPF3b (C-TERb) (domain or fragment, human, UniProt Q92784-1 200-378, looked up)
chain: CDICGKRYKNRPGLSYHYAHTHLASEEGDEAQDQETRSPPNHRNENHRPQKGPDGTVIPNNYCDFCLGGSNMNKKSGRPEELVSCADCGRSGHPTCLQFTLNMTEAVKTYKWQCIECKSCILCGTSENDDQLLFCDDCDRGYHMYCLNPPVAEPPEGSWSCHLCWELLKEKASAFGCQA
notes: Double-PHD fingers 3 isoform DPF3b (378 amino acids), human, Uniprot Q92784-1, residues 200-378 (C2H2, PHD-1 and PHD-2 zinc fingers); also called DPF3b C-terminus; source: E. coli BL21 Rosetta (DE3), purified (GSTrap FF, on-column TEV cleavage); not shown: GST, N-terminal, cleaved
B2: C-terminal region of DPF3a (C-TERa) (domain or fragment, human, UniProt Q92784-2 200-357, looked up)
chain: CDICGKRYKNRPGLSYHYAHTHLASEEGDEAQDQETRSPPNHRNENHRPQKGPDGTVIPNNYCDFCLGGSNMNKKSGRPEELVSCADCGRSAHLGGEGRKEKEAAAAARTTEDLFGSTSESDTSTFHGFDEDDLEEPRSCRGRRSGRGSPTADKKGSC
notes: Double-PHD fingers 3 isoform DPF3a (357 amino acids), human, Uniprot Q92784-2, residues 200-357 (C2H2, truncated PHD-1/2 and disordered C-terminal domain); also called DPF3a C-terminus; source: E. coli BL21 Rosetta (DE3), purified (GSTrap FF, on-column TEV cleavage); not shown: GST, N-terminal, cleaved

Target: the molecule itself
Test: thioflavin T fluorescence; purified C-TER (~10 µM) incubated in TBS (50 mM Tris-HCl pH 8.0, 150 mM NaCl) at ~20 °C for 96 to 144 h; 10 µM ThT, excitation 440 nm, emission 485 nm; self-assembly into amyloid fibrils; also at ~5 µM with 100 µM Cu2+, Mg2+, Ni2+ or Zn2+

Protein | binding result
B1 | binds
B2 | binds
